PMC5291263

How the values were obtained:
[1] = biological target: T1, GB1-SRSF1 RRM2 WT (pseudo-RRM) (human, UniProt Q07955 107-203); test: ITC
GB1-SRSF1 RRM2 R142A = GB1-SRSF1 RRM2 R142A (human, UniProt Q07955 107-203, R142A); test: ITC
[2] = biological target: T1, GB1-SRSF1 RRM2 WT (pseudo-RRM); test: NMR

T1 sequence (Q07955 107-203): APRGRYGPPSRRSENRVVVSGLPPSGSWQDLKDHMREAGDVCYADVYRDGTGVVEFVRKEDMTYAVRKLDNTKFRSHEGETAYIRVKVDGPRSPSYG
Sequence of GB1-SRSF1 RRM2 R142A (Q07955 107-203 R142A): as the sequence (Q07955 107-203) above, with R36A counted along it

Binder	Kd [1] [µM]	Kd (GB1-SRSF1 RRM2 R142A) [µM]	binding result [2]
AGGAC (ssRNA) [5'-AGGAC-3' RNA]	1	7	
UGAAGGAC (ssRNA) [5'-UGAAGGAC-3' RNA]			binds
